Measured values as given in patent US20230346948A1, “Lipid conjugated peptide inhibitors of PICK1” (University of Copenhagen, priority 2020, published 2023).

Assays:
[1] = test system: diabetic neuropathy (STZ model); conditions: 5MPK, at +2 h
Procedure: Diabetic neuropathy (STZ) model. Diabetes is induced by a single IP injection of […]. Streptozocin solution (100 μl/10 g, Sigma-aldrich S0130, batch #WXBB7152V). Glycemia is tested before, and 7 days after injection.
The mechanical threshold response of the operated mice was measured with calibrated von Frey filaments (“up/down” method) and the 50% threshold (g) was calculated. The experimenter was blinded to mice treatment. […] Compounds were diluted in PBS (vehicle) and administered s.c. at 10 μL/g, in doses as indicated (gabapentine, 5MPK). Statistical analysis was performed using GraphPad Prism 6.0.

[2] = target: T1, purified PICK1 (Rattus norvegicus, UniProt Q9EP80); test: Fluorescence polarization competition, substituted peptide libraries; type: binding; conditions: relative to HWLKV; tracer 5FAM-HWLKV 20 nM
T1 construct: Full length rat PICK1 (pET41) was prepared as described earlier; inferred from pET41 vector and Glutathione-Sepharose capture) (N, cleaved yes); made in house; host or cells: E. coli BL21-DE3-pLysS
Procedure: Full length rat PICK1 (pET41) was prepared as described earlier (Madsen et al., 2005). In brief, PICK1 was expressed in BL21-DE3-pLysS cells and grown at 37° C., induced at OD600=0.6 with 1 mM Isopropyl β-D-1-thiogalactopyranoside (IPTG) and grown 16 hrs at 20° C. Cultures were harvested and re-suspended in 50 mM trisaminomethane (Tris), 125 mM NaCl, 2 mM Dithiothreitol (DTT, Sigma), 1% Triton X-100 (Sigma), 20 μg/mL DNAse 1 and ½ a tablet cOmplete protease inhibitor cocktail (Roche) pr. 1 L culture. The re-suspended pellets were frozen at −80° C. for later purification. The lysate was cleared by centrifugation (36,000×g for 30 min at 4° C.), and the supernatant was incubated with Glutathione-Sepharose 4B beads (GE Healthcare) for 2 hrs at 4° C. under gentle rotation and then centrifuged at 4,000×g for 5 min. The supernatant was removed and the beads were washed twice in 35 mL 50 mM Tris, 125 mM NaCl, 2 mM DTT and 0.01% Triton-X100. The beads were transferred to PD-10 Bio-Spine Chromatography columns (Bio-Rad) and washed with an additional 3 column volumes. Each column was sealed and 0.075 U/μL, Novagen® was added for cleavage 0/N at 4° C. under gentle rotation. PICK1 was eluted on ice and absorption at 280 nm was measured on TECAN plate reader or on a NanoDrop3000. The protein concentration was determined using lambert beers law (A=εcl), εA280PICK1=32320 (cm*mol/L)^−1.
The plate was incubated 20 min on ice in a black half-area Corning Black non-binding surface 96-well plate and the fluorescence polarization was measured directly on a Omega POLARstar plate reader using excitation filter at 488-nm and long pass emission filter at 535-nm.

[3] = Plasma exposure of biotinylated peptide after s.c. injection, ELISA; type: in vivo, mice; conditions: male, C57bl6N, mouse, sc, s.c. 10 μmol/kg, read-out: time of peak plasma concentration (converted)
Procedure: Blood sample collection. Biotinylated TAT-di-PEG4-DATC5 (biot-TPD5; 34 mg/kg=[…]) or Biotinylated myr-di-PEG4-DATC5 (biot-mPD5; […]) diluted in 0.9% NaCl was injected s.c in 8 weeks old male C57bl6N mice (18 mice in total) once, and blood samples were collected after 15 min, 30 min, 1 h, 2 h and 6 h (blood samples from 6 mice per timepoint) using Aprotinine-containing BD Vacutainer®K3EDTA tubes (BD Diagnostics). The blood samples were centrifuged at 3500 RPM for 15 min at 4° C. and the plasma was collected in new tubes and freezed down at −20° C.
ELISA. A 96 well NUNC IMMOBILIZER (Cat. No. 436006) plate was coated with 15 μg/mL […] (Sigma-Aldrich, Product no. A8549) diluted in 100 mM sodium carbonate buffer (pH 9.6) and incubated for 2 h at room temperature on shaker. After incubation the plate was washed with PBS-T (1× phosphate buffered saline with 0.1% TWEEN® 20 (Sigma-Aldrich)) 3×, 1 washing step overnight at room temperature on shaker. […] The plate was read at 450 nm (and 570 nm) on a Wallac VICTOR2 1420 Multilabel Counter from PerkinElmer (Hvidovre, Denmark). The measured absorbance was calibrated to a standard curve generated from standard dilutions of biot-TPD5.

T1 sequence (Q9EP80 whole entry): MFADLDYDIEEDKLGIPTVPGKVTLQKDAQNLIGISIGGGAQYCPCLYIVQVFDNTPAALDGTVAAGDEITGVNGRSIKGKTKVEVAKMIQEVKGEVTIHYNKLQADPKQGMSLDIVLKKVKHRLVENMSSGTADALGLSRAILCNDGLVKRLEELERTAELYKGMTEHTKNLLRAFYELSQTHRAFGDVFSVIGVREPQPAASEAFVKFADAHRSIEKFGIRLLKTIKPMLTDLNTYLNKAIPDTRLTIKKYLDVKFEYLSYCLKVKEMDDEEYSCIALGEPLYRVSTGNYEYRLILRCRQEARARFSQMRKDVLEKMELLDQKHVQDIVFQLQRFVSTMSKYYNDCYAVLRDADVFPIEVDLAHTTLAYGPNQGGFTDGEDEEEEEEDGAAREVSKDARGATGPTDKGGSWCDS

Molecule: CC(C)C[C@H](CN)CC(=O)O [Pregabalin, reference compound]
- maximum reversal of mechanical response threshold [1]: 84.7±10.5 % of baseline

Molecule: IRV [3-mer peptide of combinatorial library]
- fold affinity change, combinatorial peptide library [2]: optimal 3-mer sequences

Molecule: CC(C)C[C@H](NC(=O)[C@H](Cc1c[nH]c2ccccc12)NC(=O)[C@H](Cc1c[nH]cn1)NC(=O)CCOCCOCCN(CCOCCOCCC(=O)N[C@@H](Cc1c[nH]cn1)C(=O)N[C@@H](Cc1c[nH]c2ccccc12)C(=O)N[C@@H](CC(C)C)C(=O)N[C@@H](CCCCN)C(=O)N[C@H](C(=O)O)C(C)C)C(=O)[C@H](CCCNC(=N)N)NC(=O)[C@H](CCCNC(=N)N)NC(=O)[C@H](CCCNC(=N)N)NC(=O)[C@H](CCC(N)=O)NC(=O)[C@H](CCCNC(=N)N)NC(=O)[C@H](CCCNC(=N)N)NC(=O)[C@H](CCCCN)NC(=O)[C@H](CCCCN)NC(=O)[C@H](CCCNC(=N)N)NC(=O)CNC(=O)[C@H](Cc1ccc(O)cc1)NC(=O)CCCC[C@@H]1SC[C@@H]2NC(=O)N[C@@H]21)C(=O)N[C@@H](CCCCN)C(=O)N[C@H](C(=O)O)C(C)C [biotinylated Tat-NPEG4-(HWLKV)2]
- Tmax [3]: 30 min

Molecule: TSIRV (DAT-C5 variant) [5-mer peptide of combinatorial library]
- fold affinity change, combinatorial peptide library [2]: optimal 5-mer sequences

Molecule: NSVRV (DAT-C5 variant) [5-mer peptide of combinatorial library]
- fold affinity change, combinatorial peptide library [2]: optimal 5-mer sequences

Molecule: IIV [3-mer peptide of combinatorial library]
- fold affinity change, combinatorial peptide library [2]: optimal 3-mer sequences

Molecule: EIRV (DAT-C5 variant) [4-mer peptide of combinatorial library]
- fold affinity change, combinatorial peptide library [2]: optimal 4-mer sequences

Molecule: YIIV (DAT-C5 variant) [4-mer peptide of combinatorial library]
- fold affinity change, combinatorial peptide library [2]: optimal 4-mer sequences
